Test results taken from PMC9482650, “Quantitative fragmentomics allow affinity mapping of interactomes” (Nature Communications, 2022).

Key:
Assay in all cases: holdup assay
Design in all cases: key: below the threshold = too weak to quantify, mostly under pKd 3.1 to 4
Conditions in all cases: plain residues with an end cap or a label only (N-terminal biotin on a linker: ado-ado)
[1] = target: T1, LIN7A, O14910
T1 sequence (O14910 103-200, limits assumed, looked up): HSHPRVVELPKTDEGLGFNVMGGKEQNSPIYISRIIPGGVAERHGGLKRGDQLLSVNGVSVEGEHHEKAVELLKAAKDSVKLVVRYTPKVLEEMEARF

[2] = target: T2, DLG3_3, Q92796
T2 sequence (Q92796 374-475, limits assumed, looked up): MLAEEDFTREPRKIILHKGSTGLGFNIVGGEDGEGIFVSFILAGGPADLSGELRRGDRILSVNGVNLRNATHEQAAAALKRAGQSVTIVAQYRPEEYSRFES

[3] = target: Inadl_10, Q8NI35
[4] = target: GORASP2, Q9H8Y8
[5] = target: GRASP, Q7Z6J2
[6] = target: NHERF4_4, Q86UT5
[7] = target: T3, MPDZ_12, O75970
T3 sequence (O75970 1857-1958, limits assumed, looked up): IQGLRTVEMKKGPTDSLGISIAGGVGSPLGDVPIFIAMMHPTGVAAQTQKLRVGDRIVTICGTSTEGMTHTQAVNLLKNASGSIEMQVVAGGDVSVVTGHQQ

[8] = target: MAGI2_2, Q86UL8
[9] = target: MAST2, Q6P0Q8
[10] = target: T4, DLG3_1, Q92796
T4 sequence (Q92796 125-227, limits assumed, looked up): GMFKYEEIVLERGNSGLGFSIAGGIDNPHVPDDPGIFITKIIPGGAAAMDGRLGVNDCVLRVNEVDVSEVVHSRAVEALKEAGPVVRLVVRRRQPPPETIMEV

[11] = target: T5, SHANK1, Q9Y566
T5 sequence (Q9Y566 658-767, limits assumed, looked up): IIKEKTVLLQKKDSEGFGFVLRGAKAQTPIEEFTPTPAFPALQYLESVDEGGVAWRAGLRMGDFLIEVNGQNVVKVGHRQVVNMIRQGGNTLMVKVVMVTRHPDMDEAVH

[12] = target: T6, LIN7B, Q9HAP6
T6 sequence (Q9HAP6 88-185, limits assumed, looked up): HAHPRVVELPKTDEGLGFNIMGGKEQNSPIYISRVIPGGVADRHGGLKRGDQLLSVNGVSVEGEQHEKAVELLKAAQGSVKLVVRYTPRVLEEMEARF

[13] = target: T7, PTPN13_1, Q12923
T7 sequence (Q12923 1088-1188, limits assumed, looked up): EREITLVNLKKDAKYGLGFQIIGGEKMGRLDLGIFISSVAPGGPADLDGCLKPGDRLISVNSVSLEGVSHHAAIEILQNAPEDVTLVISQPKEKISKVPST

[14] = target: Inadl_5, Q8NI35
[15] = target: T8, DVL3, Q92997
T8 sequence (Q92997 244-331, limits assumed, looked up): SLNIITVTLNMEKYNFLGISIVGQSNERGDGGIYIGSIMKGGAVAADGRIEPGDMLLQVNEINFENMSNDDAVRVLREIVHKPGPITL

[16] = target: NHERF2_2, Q15599
[17] = target: DLG1_2, Q12959
[18] = target: Inadl_1, Q8NI35
[19] = target: ARHGEF12, Q9NZN5-2
[20] = target: T9, PCLO, Q9Y6V0
T9 sequence (Q9Y6V0 4491-4600, limits assumed, looked up): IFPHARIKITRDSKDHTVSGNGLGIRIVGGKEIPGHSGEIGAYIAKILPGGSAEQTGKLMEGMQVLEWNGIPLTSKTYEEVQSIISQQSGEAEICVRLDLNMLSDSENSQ

[21] = target: MAGI2_6, Q86UL8
[22] = target: GRID2IP_1, A4D2P6
[23] = target: Inadl_9, Q8NI35
[24] = target: GOPC, Q9HD26
[25] = target: LNX1_1, Q8TBB1
[26] = target: T10, TX1BP3, O14907
T10 sequence (O14907 10-122, limits assumed, looked up): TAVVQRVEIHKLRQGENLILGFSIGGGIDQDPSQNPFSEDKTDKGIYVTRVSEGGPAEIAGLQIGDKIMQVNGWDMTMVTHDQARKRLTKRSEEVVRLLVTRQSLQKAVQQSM

[27] = target: DLG5_1, Q8TDM6
[28] = target: FRMPD2_1, Q68DX3
Sequence of FRMPD2_1, Q68DX3 (Q68DX3 770-861): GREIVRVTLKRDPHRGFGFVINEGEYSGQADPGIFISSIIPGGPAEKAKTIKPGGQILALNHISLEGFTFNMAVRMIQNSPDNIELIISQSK

Sequence of NHERF2_2, Q15599 (Q15599 142-238): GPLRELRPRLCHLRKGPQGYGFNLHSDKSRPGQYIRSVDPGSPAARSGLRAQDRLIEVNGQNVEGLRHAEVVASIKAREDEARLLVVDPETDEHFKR
Sequence of MAGI2_6, Q86UL8 (Q86UL8 1141-1229): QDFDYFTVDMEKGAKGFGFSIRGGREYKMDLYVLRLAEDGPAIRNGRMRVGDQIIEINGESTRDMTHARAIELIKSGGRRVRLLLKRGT
Sequence of Inadl_10, Q8NI35 (Q8NI35 1673-1763): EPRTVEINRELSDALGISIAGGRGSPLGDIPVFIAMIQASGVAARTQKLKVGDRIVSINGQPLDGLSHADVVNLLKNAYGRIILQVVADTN
Sequence of LNX1_1, Q8TBB1 (Q8TBB1 261-371): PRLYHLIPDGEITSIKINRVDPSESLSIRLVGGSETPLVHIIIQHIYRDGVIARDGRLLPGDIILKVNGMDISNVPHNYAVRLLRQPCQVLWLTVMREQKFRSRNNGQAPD
Sequence of DLG1_2, Q12959 (Q12959 314-412): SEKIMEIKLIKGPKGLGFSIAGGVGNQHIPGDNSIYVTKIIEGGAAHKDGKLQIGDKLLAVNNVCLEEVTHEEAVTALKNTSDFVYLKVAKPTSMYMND
Sequence of Inadl_5, Q8NI35 (Q8NI35 673-780): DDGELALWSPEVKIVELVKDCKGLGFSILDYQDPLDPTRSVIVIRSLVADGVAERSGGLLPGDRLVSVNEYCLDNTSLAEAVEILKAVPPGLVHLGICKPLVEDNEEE
Sequence of MAST2, Q6P0Q8 (Q6P0Q8 1099-1202): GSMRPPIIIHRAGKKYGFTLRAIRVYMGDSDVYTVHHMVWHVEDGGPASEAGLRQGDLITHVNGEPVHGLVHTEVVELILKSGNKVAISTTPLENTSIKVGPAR
Sequence of ARHGEF12, Q9NZN5-2 (Q9NZN5 other isoform, or with tags, fused parts or gaps): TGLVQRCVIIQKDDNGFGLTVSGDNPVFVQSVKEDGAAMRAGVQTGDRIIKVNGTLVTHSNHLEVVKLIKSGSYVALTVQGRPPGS
Sequence of GRID2IP_1, A4D2P6 (A4D2P6 1-87): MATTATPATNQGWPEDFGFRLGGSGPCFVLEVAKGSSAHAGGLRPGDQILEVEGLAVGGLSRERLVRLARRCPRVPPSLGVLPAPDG
Sequence of DLG5_1, Q8TDM6 (Q8TDM6 617-713): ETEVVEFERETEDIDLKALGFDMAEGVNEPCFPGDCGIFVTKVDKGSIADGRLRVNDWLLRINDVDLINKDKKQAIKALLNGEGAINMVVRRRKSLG
Sequence of GRASP, Q7Z6J2 (Q7Z6J2 96-193): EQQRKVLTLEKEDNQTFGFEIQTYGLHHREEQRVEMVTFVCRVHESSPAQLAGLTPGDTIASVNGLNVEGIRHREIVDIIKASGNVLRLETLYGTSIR
Sequence of Inadl_1, Q8NI35 (Q8NI35 113-229): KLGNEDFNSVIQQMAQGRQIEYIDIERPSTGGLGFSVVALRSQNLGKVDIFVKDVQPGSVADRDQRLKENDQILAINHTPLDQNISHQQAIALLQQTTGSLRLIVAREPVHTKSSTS
Sequence of MAGI2_2, Q86UL8 (Q86UL8 410-522): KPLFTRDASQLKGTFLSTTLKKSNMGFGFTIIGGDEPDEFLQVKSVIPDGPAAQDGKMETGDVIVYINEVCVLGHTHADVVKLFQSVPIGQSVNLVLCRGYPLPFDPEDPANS
Sequence of Inadl_9, Q8NI35 (Q8NI35 1530-1615): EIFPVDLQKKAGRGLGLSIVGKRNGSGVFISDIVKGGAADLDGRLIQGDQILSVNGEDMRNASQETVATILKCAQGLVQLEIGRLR
Sequence of NHERF4_4, Q86UT5 (Q86UT5 464-550): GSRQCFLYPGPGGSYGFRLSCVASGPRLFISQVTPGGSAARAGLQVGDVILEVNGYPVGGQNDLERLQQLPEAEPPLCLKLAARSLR

SSSVNVSSNL [CXCR1, P25024]
pKd [1]: below the threshold
pKd [2]: below the threshold
pKd [3]: below the threshold
pKd [4]: below the threshold
pKd [5]: 3.63
pKd [6]: below the threshold
pKd [7]: below the threshold
pKd [8]: below the threshold
pKd [9]: 5.13
pKd [10]: below the threshold
pKd [11]: 3.94
pKd [12]: 3.58
pKd [13]: below the threshold
pKd [14]: below the threshold
pKd [15]: below the threshold
pKd [16]: 4.44
pKd [17]: below the threshold
pKd [18]: below the threshold
pKd [19]: 4.24
pKd [20]: below the threshold
pKd [21]: below the threshold
pKd [22]: below the threshold
pKd [23]: below the threshold
pKd [24]: below the threshold
pKd [25]: 3.59
pKd [26]: 3.84
pKd [27]: below the threshold
pKd [28]: below the threshold

LLQEEWETVM [PTH1R, Q03431]
pKd [1]: below the threshold
pKd [2]: below the threshold
pKd [3]: below the threshold
pKd [4]: below the threshold
pKd [5]: 3.72
pKd [6]: below the threshold
pKd [7]: below the threshold
pKd [8]: below the threshold
pKd [9]: 5.68
pKd [10]: below the threshold
pKd [11]: 4.85
pKd [12]: below the threshold
pKd [13]: below the threshold
pKd [14]: below the threshold
pKd [15]: below the threshold
pKd [16]: 5.14
pKd [17]: below the threshold
pKd [18]: below the threshold
pKd [19]: 3.61
pKd [20]: below the threshold
pKd [21]: 3.75
pKd [22]: below the threshold
pKd [23]: below the threshold
pKd [24]: 3.85
pKd [25]: 3.72
pKd [26]: below the threshold
pKd [27]: below the threshold
pKd [28]: below the threshold

NNMAFETTHF [SLC5A12, Q1EHB4]
pKd [1]: 3.74
pKd [2]: below the threshold
pKd [3]: below the threshold
pKd [4]: below the threshold
pKd [5]: 4.8
pKd [6]: below the threshold
pKd [7]: below the threshold
pKd [8]: below the threshold
pKd [9]: 5.56
pKd [10]: below the threshold
pKd [11]: 5.81
pKd [12]: 3.62
pKd [13]: below the threshold
pKd [14]: below the threshold
pKd [15]: below the threshold
pKd [16]: 4.7
pKd [17]: below the threshold
pKd [18]: below the threshold
pKd [19]: below the threshold
pKd [20]: below the threshold
pKd [21]: 4
pKd [22]: below the threshold
pKd [23]: below the threshold
pKd [24]: below the threshold
pKd [25]: below the threshold
pKd [26]: 3.93
pKd [27]: below the threshold
pKd [28]: below the threshold

HLSTRQGTCV [ATRNL1, Q5VV63]
pKd [1]: below the threshold
pKd [2]: 3.85
pKd [3]: below the threshold
pKd [4]: 4.15
pKd [5]: 4.28
pKd [6]: 3.94
pKd [7]: 3.67
pKd [8]: 4.73
pKd [9]: 4.94
pKd [10]: 3.84
pKd [11]: below the threshold
pKd [12]: below the threshold
pKd [13]: below the threshold
pKd [14]: 4.04
pKd [15]: below the threshold
pKd [16]: below the threshold
pKd [17]: 4.55
pKd [18]: below the threshold
pKd [19]: 3.51
pKd [20]: below the threshold
pKd [21]: 4
pKd [22]: below the threshold
pKd [23]: 4.1
pKd [24]: 3.76
pKd [25]: 4.34
pKd [26]: below the threshold
pKd [27]: below the threshold
pKd [28]: 4.1
